{"source": "patent US20240270839A1", "about": "(ELPISCIENCE SUZHOU BIOPHARMA, published 2024)", "binders": {"B1": {"name": "hu22E12.H1L2-ADE (antibody, human IgG1)", "heavy": "QVQLVQSGAEVKKPGASVKVSCKASGYTFTNWVHWVRQAPGQGLEWMGEINPTNARSNYNEKFKKRVTMTRDTSTSTVYMELSSLRSEDTAVYYCARIYYGNSFAHWGQGTLVTVSSASTKGPSVFPLAPSSKSTSGGTAALGCLVKDYFPEPVTVSWNSGALTSGVHTFPAVLQSSGLYSLSSVVTVPSSSLGTQTYICNVNHKPSNTKVDKKVEPKSCDKTHTCPPCPAPELLAGPDVFLFPPKPKDTLMISRTPEVTCVVVDVSHEDPEVKFNWYVDGVEVHNAKTKPREEQYNSTYRVVSVLTVLHQDWLNGKEYKCKVSNKALPAPEEKTISKAKGQPREPQVYTLPPSREEMTKNQVSLTCLVKGFYPSDIAVEWESNGQPENNYKTTPPVLDSDGSFFLYSKLTVDKSRWQQGNVFSCSVMHEALHNHYTQKSLSLSPGK", "VL": "DIVMTQSPDSLAVSLGERATINCKSSQSLLNAGNQKNYLTWYQQKPGQPPKLLIYWSSTRESGVPDRFSGSGSGTDFTLTISSLQAEDVAVYHCQNNYYYPLTFGGGTKLEIK"}, "B2": {"name": "hu22E12.H1L2-DE (antibody, human IgG1)", "heavy": "not shown", "VL": "B1 VL"}, "B3": {"name": "hu22E12.H1L2-VLPLL (antibody, human IgG1)", "heavy": "B1 heavy with L235V, A236G, D239S, F243L, R292P, Y300L, E332I, P396L", "VL": "B1 VL"}, "B4": {"name": "hu22E12.H1L2-DLE (antibody, human IgG1)", "heavy": "B1 heavy with A236G, A330L", "VL": "B1 VL"}, "B5": {"name": "hu22E12.H1L2 (antibody, V domains shown)", "VH": "QVQLVQSGAEVKKPGASVKVSCKASGYTFTNWVHWVRQAPGQGLEWMGEINPTNARSNYNEKFKKRVTMTRDTSTSTVYMELSSLRSEDTAVYYCARIYYGNSFAHWGQGTLVTVSS", "VL": "B1 VL", "notes": "humanized 22E12"}, "B6": {"name": "hu35B4.H1L2-ADE (antibody, human IgG1)", "heavy": "EVQLLESGGGLVQPGGSLRLSCAASGFTLSSYALSWVRQAPGKGLEWVSYISNLGGSTFYPDTVKGRFTISRDNSKNTLYLQMNSLRAEDTAVYYCAKHLYNYDAFASWGQGTLVTVSSASTKGPSVFPLAPSSKSTSGGTAALGCLVKDYFPEPVTVSWNSGALTSGVHTFPAVLQSSGLYSLSSVVTVPSSSLGTQTYICNVNHKPSNTKVDKKVEPKSCDKTHTCPPCPAPELLAGPDVFLFPPKPKDTLMISRTPEVTCVVVDVSHEDPEVKFNWYVDGVEVHNAKTKPREEQYNSTYRVVSVLTVLHQDWLNGKEYKCKVSNKALPAPEEKTISKAKGQPREPQVYTLPPSREEMTKNQVSLTCLVKGFYPSDIAVEWESNGQPENNYKTTPPVLDSDGSFFLYSKLTVDKSRWQQGNVFSCSVMHEALHNHYTQKSLSLSPGK", "VL": "DIQLTQSPSFLSASVGDRVTITCRASSSVNYIHWYQQKPGKAPKALIYATSNLASGVPSRFSGSGSGTEYTLTISSLQPEDFATYYCQQWNSNPLTFGQGTKLEIK"}, "B7": {"name": "hu35B4.H1L2-DE (antibody, human IgG1)", "heavy": "not shown", "VL": "B6 VL"}, "B8": {"name": "hu35B4.H1L2-VLPLL (antibody, human IgG1)", "heavy": "B6 heavy with L237V, A238G, D241S, F245L, R294P, Y302L, E334I, P398L", "VL": "B6 VL"}, "B9": {"name": "hu35B4.H1L2-DLE (antibody, human IgG1)", "heavy": "B6 heavy with A238G, A332L", "VL": "B6 VL"}, "B10": {"name": "hu35B4.H3L1 (antibody, V domains shown)", "VH": "EVQLLESGGGLVQPGGSLRLSCAASGFTLSSYALSWVRQAPGKGLEWVAYISNLGGSTFYPDTVKGRFTISRDNSKNTLYLQMNSLRAEDTAVYYCATHLYNYDAFASWGQGTLVTVSS", "VL": "B6 VL with A45L, Y70F", "notes": "humanized 35B4"}, "B11": {"name": "hu35B4.H3L3 (antibody, V domains shown)", "VH": "B10 VH", "VL": "B6 VL with A42S", "notes": "humanized 35B4"}, "B12": {"name": "hu35B4.H2L3 (antibody, V domains shown)", "VH": "B10 VH with A49S", "VL": "B6 VL with A42S", "notes": "humanized 35B4"}, "B13": {"name": "hu35B4.H1L2 (antibody, V domains shown)", "VH": "B10 VH with A49S, T98K", "VL": "B6 VL", "notes": "humanized 35B4"}, "B14": {"name": "hu35B4.H3L4 (antibody, V domains shown)", "VH": "B10 VH", "VL": "B6 VL with I21M, A42S, L77V", "notes": "humanized 35B4"}, "B15": {"name": "hu35B4.H2L4 (antibody, V domains shown)", "VH": "B10 VH with A49S", "VL": "B6 VL with I21M, A42S, L77V", "notes": "humanized 35B4"}, "B16": {"name": "hu35B4.H3L2 (antibody, V domains shown)", "VH": "B10 VH", "VL": "B6 VL", "notes": "humanized 35B4"}, "B17": {"name": "ch35B4 (antibody, V domains shown)", "VH": "EAKLVESGGDFMQPGGSLKLSCAASGFTLSSYALSWVRQTPEKRLEWVAYISNLGGSTFYPDTVKGRFTISRDNARNTLFLQMSSLQSEDTAIYYCATHLYNYDAFASWGQGTLVTVSA", "VL": "QIVLSQSPAILSASPGEKVTMTCRASSSVNYIHWYQQKPGSSPKAWIYATSNLASGVPTRFSGSGSGTSYSLTIDRVEAEDAATYYCQQWNSNPLTFGAGTKLELK"}, "B18": {"name": "ch33G12 (antibody, V domains shown)", "VH": "EVKLVESGGGLVQPGGSLKLSCAASGFTFSRYAMSWVRQTPEKRLEWVAYISIGGTTYYPDTIKGRFTISRDNAKNTLYLQMSSLKSEDTAMYYCTRHYYGHDVMDYWGQGTSVTVSS", "VL": "B17 VL with A9T, S26T, N30S, I32M, Y35F, A45P, T59A, D75S, N91S, S92R"}, "B19": {"name": "ch60F11 (antibody, V domains shown)", "VH": "QVQLQQPGAELVKPGASVKLSCKASGYTFTSYWMHWVKQRPGQGLEWIGMIHPNSGSTNYNEKFKSKATLTVDKSSSTAYMQLSSLTSEDSAVYYCARMGLGNAMDYWGQGTSVTVSS", "VL": "DIVMTQSPSSLTVTAGEKVTLSCKSSQSLLNSGNQRNYLTWYQQKPGQPPKLLIYWASTRESGVPDRFTGSGSGTDFTLTISSVQAEDLAVYYCQNAYSYPLTFGAGTKLELK"}, "B20": {"name": "ch97A9 (antibody, V domains shown)", "VH": "QVQLQQSGPELVKPGASMKLSCKASGYSFTRNDINWVKQRPGQGLEWIGLSYPRDGTTQYNGKFKGKATLTVDTSSSTAYMELRSLTSEDSAVYFCARGYYGNSFAYWGQGTLVTVSA", "VL": "B19 VL with L21M, R36K, D76Y, Y93F, A97D, S99Y, Y100F, L102Y, A106G, L112I"}, "B21": {"name": "ch22E12 (antibody, V domains shown)", "VH": "QVQLQQPGTELVKTGTSVKLSCKASGYTFTNWVHWVIQRPGQGLEWIGEINPTNGRSNYNEKFKKKATLTLDRSSTTAYMQLSSLTSEDSAVYFCAGIYYGNSFAHWGQGTLVTVSA", "VL": "B19 VL with R36K, A57S, Y93H, A97N, S99Y"}, "B22": {"name": "ch99H8 (antibody, V domains shown)", "VH": "QVQLQQSGPELVKPGASVKLSCKASGYSFTNFDINWVKQRPGQGLQWIGRLYPRDGTTTYNEKFKGKASLTVDTSSTTSYMDLHSLTSEDSAVYFCVRGNYGNSFAYWGQGTLVTVSA", "VL": "DIVMTQSPSSLTVTAREKVIMNCKSSQSLFNSGNQKNYLTWYQQKPGQSPKLLIYWASTRQSGVPDRFTGSGSGTDFTLTISTVQAEDLAVYFCQNGFSFPYTFGGGTKLEMN"}}, "key": {"[1]": {"target": "human CLDN18.2 (hCLDN18.2), expressed on cells (human)", "test": "cell-based or functional assay"}, "[2]": {"target": "T1, human CLDN18.2 (hCLDN18.2), expressed on cells (human)", "T1 construct": "the constructs in the cell lines are not described; also called Claudin18.2; HEK293-hCLDN18.2", "test": "FACS, MFC cells over-expressing hCLDN18.2"}, "[3]": {"target": "T1, human CLDN18.2 (hCLDN18.2), expressed …", "test": "cell-based or functional assay", "remark": "listed apart in the source"}, "[4]": {"target": "T1, human CLDN18.2 (hCLDN18.2), expressed …", "test": "FACS, SNU620 cells over-expressing hCLDN18.2"}, "[5]": {"target": "T1, human CLDN18.2 (hCLDN18.2), expressed …", "test": "cell-based or functional assay", "remark": "listed apart in the source"}}, "note": "Positions count from the first letter of the chain named. Values joined by “and” are separate entries in the source; they are usually repeats but may differ in a detail not shown here. Equal entries are not always repeated. Where two headings read alike, the source gives them in different places.", "data": [{"binder": "B1", "values": [{"measurement": "ADCC EC50 (nM), NK-CD16a effector cells", "setting": "[1]", "result": 0.00765, "unit": "nM"}]}, {"binder": "B2", "values": [{"measurement": "ADCC EC50 (nM), NK-CD16a effector cells", "setting": "[1]", "result": 0.00637, "unit": "nM"}]}, {"binder": "B3", "values": [{"measurement": "ADCC EC50 (nM), NK-CD16a effector cells", "setting": "[1]", "result": 0.00997, "unit": "nM"}]}, {"binder": "B4", "values": [{"measurement": "ADCC EC50 (nM), NK-CD16a effector cells", "setting": "[1]", "result": 0.00503, "unit": "nM"}]}, {"binder": "B5", "values": [{"measurement": "ADCC EC50 (nM), NK-CD16a effector cells", "setting": "[1]", "result": 0.144, "unit": "nM"}, {"measurement": "EC50", "setting": "[2]", "result": 1320, "unit": "pM"}]}, {"binder": "B6", "values": [{"measurement": "ADCC EC50 (nM), NK-CD16a effector cells", "setting": "[3]", "result": "7.1e-05", "unit": "nM"}]}, {"binder": "B7", "values": [{"measurement": "ADCC EC50 (nM), NK-CD16a effector cells", "setting": "[3]", "result": "2.75e-05", "unit": "nM"}]}, {"binder": "B8", "values": [{"measurement": "ADCC EC50 (nM), NK-CD16a effector cells", "setting": "[3]", "result": "9.43e-05", "unit": "nM"}]}, {"binder": "B9", "values": [{"measurement": "ADCC EC50 (nM), NK-CD16a effector cells", "setting": "[3]", "result": "1.32e-05", "unit": "nM"}]}, {"binder": "B10", "values": [{"measurement": "EC50", "setting": "[4]", "result": 258, "unit": "pM"}]}, {"binder": "B11", "values": [{"measurement": "EC50", "setting": "[4]", "result": 319, "unit": "pM"}]}, {"binder": "B12", "values": [{"measurement": "EC50", "setting": "[4]", "result": 413, "unit": "pM"}]}, {"binder": "B13", "values": [{"measurement": "ADCC EC50 (nM), NK-CD16a effector cells", "setting": "[3]", "result": 0.02, "unit": "nM"}, {"measurement": "EC50", "setting": "[4]", "result": 253, "unit": "pM"}]}, {"binder": "B14", "values": [{"measurement": "EC50", "setting": "[4]", "result": 350, "unit": "pM"}]}, {"binder": "B15", "values": [{"measurement": "EC50", "setting": "[4]", "result": 367, "unit": "pM"}]}, {"binder": "B16", "values": [{"measurement": "EC50", "setting": "[4]", "result": 297, "unit": "pM"}]}, {"binder": "B17", "values": [{"measurement": "PBMC VS NUGC4 ADCC (EC50 nM)", "setting": "[5]", "result": 4.05, "unit": "nM"}, {"measurement": "ADCC EC50 (nM), NK-CD16a effector cells", "setting": "[3]", "result": 0.0803, "unit": "nM"}, {"measurement": "EC50", "setting": "[4]", "result": "419 pM and 442 pM"}]}, {"binder": "B18", "values": [{"measurement": "PBMC VS NUGC4 ADCC (EC50 nM)", "setting": "[5]", "result": 0.458, "unit": "nM"}]}, {"binder": "B19", "values": [{"measurement": "PBMC VS NUGC4 ADCC (EC50 nM)", "setting": "[5]", "result": 8.69, "unit": "nM"}]}, {"binder": "B20", "values": [{"measurement": "PBMC VS NUGC4 ADCC (EC50 nM)", "setting": "[5]", "result": 6.93, "unit": "nM"}]}, {"binder": "B21", "values": [{"measurement": "PBMC VS NUGC4 ADCC (EC50 nM)", "setting": "[5]", "result": 1.06, "unit": "nM"}, {"measurement": "ADCC EC50 (nM), NK-CD16a effector cells", "setting": "[1]", "result": 0.126, "unit": "nM"}, {"measurement": "EC50", "setting": "[2]", "result": "1060 pM and 943 pM"}]}, {"binder": "B22", "values": [{"measurement": "PBMC VS NUGC4 ADCC (EC50 nM)", "setting": "[5]", "result": 3.31, "unit": "nM"}]}]}
